The source of these data is US20090060920A1 (Eli Lilly, published 2009).

One may read the Kd as the concentration at which binding is half-saturated. Low values mean higher affinity, high ones lower affinity.

First the molecules themselves.
B1: Fab 5611 (Fab, V domains shown)
VH: QVQLQQSEAELVRPGSSVKISCKASGYAFSNYWMNWVKQRPGQGLEWIGQIYPGDGDTKYNGKFKGKATLTADKSSSSAYMQLSSLTSEDSAVYFCVITTVVGGDSDVWGAGTTVTVSS
VL: DLVLTQSPASLAVSLGQRATISCRASKSVSTSGYSYMHWYQQKPGQPPKLLIYLASNLESGVPARFSGSGSGTDFTLNIHPVEEEDAATYYCQHSRELPYTFGGGTKLEIKR
notes: Murine Fab from an Omniclonal library of immunised C57Bl6 mice
B2: E8 mouse IgG1 monoclonal antibody (antibody, V domains shown)
VH: B1 VH
VL: B1 VL
notes: domain: constant domain of mouse IgG1; also called E8 antibody; E8 mouse IgG1 mAb
B3: 4-28 (cys) ghrelin fragment (peptide)
peptide: FLSPEHQRVQQRKESKKPPAKLQPRC
B4: 9-28 ghrelin fragment (peptide)
peptide: HQRVQQRKESKKPPAKLQPR

The target in assay [1] is B3. The experiment in a line: competition ELISA on coated desacyl ghrelin, Fab at 10 nM. Here is the method: (§1) (450-655061) by adding 60 uL of a 0.4 μg/ml (in H₂O) solution to each well. The assay plate is placed in a dry 37° C. incubator overnight. The next day, the assay plate is washed (wash buffer: 0.1% Tween 20, Tris-buffered saline (TBS)), and blocked with casein/PBS (Pierce 37528).
(§2) “2-28 acyl ghrelin” and “3-28 acyl ghrelin” in FIG. 1 refer to acyl ghrelins (SEQ ID NO: 17) missing the first one or two amino acids at the N-terminal end of the molecule, respectively. In FIG. 2, “1-8 (cys) desacyl” refers to a desacyl ghrelin fragment consisting of amino acids 1-8 of SEQ ID NO: 17, with an additional cysteine residue at the C-terminus. “4-28 (cys)” refers to a ghrelin fragment consisting of amino acids 4-28, also with an additional cysteine residue at the C-terminus. “9-28” refers to a ghrelin fragment consisting of amino acids 9-28 of SEQ ID NO: 17. Dilutions of the ghrelin, ghrelin analogs, and Fab are made in casein/PBS. These mixtures are incubated in a separate plate for 1 hour at room temperature.
(§3) The blocking solution is removed from the assay plate and 50 uL of the ghrelin/Fab mixture are added to the assay plate in duplicate. This is allowed to sit for 30 minutes at room temperature. […] The reaction is stopped with 100 uL of 1 N HCl, and the absorbance of the wells is read at 490 nm (Molecular Device SpectraMax250).
(In general: ELISA stands for enzyme-linked immunosorbent assay.)

The target of the assay “9-28 ghrelin fragment” is B4. The assay is described as above. Here is the method: as §1, §2, §3
Assay [2] addresses T1, desacyl human ghrelin (human).
T1 construct: also called desacyl ghrelin; 1-28 desacyl ghrelin
The experiment in a line: SPR (BIAcore 2000), Fab captured by goat anti-mouse kappa, ghrelin in solution, 25 C. How it is done: (§4) Except where noted, all reagents and materials are purchased from BIAcore® AB (Upsala, Sweden). All measurements are performed at 25° C. Samples containing rat or human desacyl ghrelin are dissolved in HBS-EP buffer (150 mM sodium chloride, 3 mM EDTA, 0.005% (w/v) surfactant P-20, and 10 mM HEPES, pH 7.4). A capture antibody, goat anti-mouse Kappa (Southern Biotechnology, Inc), is immobilized onto flow cells using amine-coupling chemistry. Flow cells (1-4) are activated for 7 minutes with a 1:1 mixture of 0.1 M N-hydroxysuccinimide and 0.1 M 3-(N,N-dimethylamino)propyl-N-ethylcarbodiimide at a flow rate of 10 μl/min. Goat anti-mouse Kappa (30 μg/mL in 10 mM sodium acetate, pH 4.5) is manually injected over all 4 flow cells at a flow rate of 10 μL/min. The surface density is monitored and additional goat anti-mouse Kappa is injected if needed to individual cells until all flow cells reach a surface density of 4500-5000 response units (RU). Surfaces are blocked with a 7 minute injection of 1 M ethanolamine-HCl, pH 8.5 (10 μL/min). […]
(§5) Collection of kinetic binding data is performed at maximum flow rate (100 μL/min) and a low surface density to minimize mass transport effects. […] Signal is monitored as flow cell 2 minus flow cell 1, flow cell 3 minus flow cell 1 and flow cell 4 minus flow cell 1. […]

For assay [3], the target named is T1, desacyl human ghrelin. The experiment in a line: SPR (BIAcore 2000), antibody captured by goat anti-mouse kappa, ghrelin in solution, 25 C. Here is the method: as §4, §5
A general note: Surface plasmon resonance follows binding to a sensor surface in real time, without labels.

In the assay “Fab 5611” the target is B1. The experiment in a line: competition ELISA: peptide preincubated with 10 nM Fab 5611, mixture added to a plate coated with desacyl ghrelin, bound Fab detected with anti-mouse kappa-HRP, A490. How it is done:
as §1, §2, §3

For B1, the binding result (in assay [1]; in the assay with 9-28 ghrelin fragment) was “no binding (tested: at the concentrations tested)” in each case. Besides, in the assay with desacyl human ghrelin [2], the Kd worked out at 138 pM.

In turn, B2 returned a dissociation constant (Kd) with desacyl human ghrelin [3] of 226 pM. Take B3: the binding result with Fab 5611 is on record as “no binding (tested: 1000 nM)”. On to B4, for which, in the assay with Fab 5611, the binding result is “no binding (tested: 1000 nM)”.
